# Test results published in IntAct's records for PubMed 18583960.
# B1: Serine/threonine-protein kinase TBK1 (Mus musculus), Q9WUN2 (parent)
# chain: MQSTSNHLWLLSDILGQGATANVFRGRHKKTGDLYAVKVFNNISFLRPVDVQMREFEVLKKLNHKNIVKLFAIEEETTTRHKVLIMEFCPCGSLYTVLEEPSNAYGLPESEFLIVLRDVVGGMNHLRENGIVHRDIKPGNIMRVIGEDGQSVYKLTDFGAARELEDDEQFVSLYGTEEYLHPDMYERAVLRKDHQKKYGATVDLWSVGVTFYHAATGSLPFRPFEGPRRNKEVMYKIITGKPSGAISGVQKAENGPIDWSGDMPLSCSLSQGLQALLTPVLANILEADQEKCWGFDQFFAETSDVLHRMVIHVFSLQHMTAHKIYIHSYNTAAVFHELVYKQTKIVSSNQELIYEGRRLVLELGRLAQHFPKTTEENPIFVTSREQLNTVGLRYEKISLPKIHPRYDLDGDASMAKAVTGVVCYACRTASTLLLYQELMRKGVRWLVELVKDDYNETVHKKTEVVITLDFCIRNIEKTVKVYEKLMKVNLEAAELGEISDIHTKLLRLSSSQGTIESSLQDISSRLSPGGLLADTWAHQEGTHPRDRNVEKLQVLLNCITEIYYQFKKDKAERRLAYNEEQIHKFDKQKLYYHATKAMSHFSEECVRKYEAFKDKSEEWMRKMLHLRKQLLSLTNQCFDIEEEVSKYQDYTNELQETLPQKMLAASGGVKHAMAPIYPSSNTLVEMTLGMKKLKEEMEGVVKELAENNHILERFGSLTMDGGLRNVDCL
# partner: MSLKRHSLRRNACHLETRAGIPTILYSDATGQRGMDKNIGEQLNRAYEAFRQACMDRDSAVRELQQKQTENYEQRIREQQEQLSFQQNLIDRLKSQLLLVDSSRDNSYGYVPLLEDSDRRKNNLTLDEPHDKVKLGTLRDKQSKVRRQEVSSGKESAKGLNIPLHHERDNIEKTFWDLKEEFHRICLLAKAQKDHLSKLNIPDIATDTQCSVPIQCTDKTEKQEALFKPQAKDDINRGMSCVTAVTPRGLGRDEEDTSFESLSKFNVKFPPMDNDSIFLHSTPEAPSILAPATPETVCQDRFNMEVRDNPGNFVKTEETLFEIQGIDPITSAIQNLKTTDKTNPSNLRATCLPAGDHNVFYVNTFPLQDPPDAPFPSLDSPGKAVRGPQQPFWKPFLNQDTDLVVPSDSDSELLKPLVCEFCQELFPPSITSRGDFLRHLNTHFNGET
# Variants of: B1
# Conditions: with tank_mouse Tank
row,Variant,effect of a mutation on the interaction
1,S172A,decreasing interaction
